Test results published in the supplement of paper PMC12764529.
± gives the half width of the 95% confidence interval.

Assays:
[1] = folding stability dG unfold from trypsin proteolysis; higher = more stable
How it was run: (§1)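 Designed mini-proteins (under 80 residues, no cysteine) in a PA-tagged cDNA display construct were digested with trypsin and chymotrypsin. Each protease was used at 11 concentrations (threefold dilutions) plus a no-protease condition, followed by sequencing. K50 was inferred by Bayesian fitting of sequencing counts, and unfolding free energy was derived against a sequence-predicted unfolded-state K50 and a shared folded-state K50, per protease or combined. Only designs with AlphaFold2 dimer inter-PAE above 15 were kept.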

[2] = folding stability dG unfold from chymotrypsin proteolysis; higher = more stable
How it was run: as §1

[3] = folding stability dG unfold (combined trypsin and chymotrypsin); higher = more stable
How it was run: as §1

Sequence	folding stability dG unfold [1]	folding stability dG unfold [2]	folding stability dG unfold [3]
SAGGSAGGSAMQRVEIYFPGLKKVFTKPFKSLEEVEEAVKELLGPEYNPEKVEIKILPENAESAGGSAGGSA [r18_350_TrMRF]	0.912 ± 0.054 kcal/mol	1.5 ± 0.14 kcal/mol	1.27 ± 0.17 kcal/mol
SAGGSANWVKVEVKIPGGLKIEVWVPPGMSKEENQEKAQEMADEMAQMLRQMRENRKEGKPPTIDFSAGGSA [r15_704_TrROS]	0.819 ± 0.08 kcal/mol	2.02 ± 0.065 kcal/mol	1.66 ± 0.1 kcal/mol
SAGGSELKPGDLVVRIEIKVEVEEVRVNENGEVEVKLRVEIRIEVRPLPPPPEPSEEELLNPDGEESAGGSA [r2_495_TrROS_Hall]	2.74 ± 0.27 kcal/mol	1.89 ± 0.12 kcal/mol	2.33 ± 0.27 kcal/mol
SAGGEKKVLIVKVEIKLINNGGEFEAEFVFPEDVTLEEILAKVKELLPPGAKAEIKIKEIKLVSEDGSAGGS [r16_393_TrMRF]	3.93 ± 0.18 kcal/mol	2.76 ± 0.15 kcal/mol	3.58 ± 0.39 kcal/mol
SAGGPDDMKIIEETTIRFPENGMQFNIRIYKLPDNDVFIEAEMIMPNGKPVGRMEARVPNGKPIEIPFSAGG [r13_573_TrROS]	0.854 ± 0.04 kcal/mol	1.64 ± 0.12 kcal/mol	1.36 ± 0.087 kcal/mol
SKKIIKIKIEVIFPKTKKKIEIEIEMTEEEAKKLAEELKKKFKDEKVEVKIVKIEPLPPKKKKKVSKKKKSA [r9_14_TrROS_Hall]	1.52 ± 0.099 kcal/mol	1.99 ± 0.1 kcal/mol	1.83 ± 0.2 kcal/mol
SAGGSAGGSAGGFNIKLDVEIDPENYVIKNKLEVRDGGEERRFEMWIPIRVPPADPDDPSAGGSAGGSAGGS [r10_1049_TrROS]	-0.135 ± 0.29 kcal/mol	1.39 ± 0.27 kcal/mol	0.852 ± 0.21 kcal/mol
SMTVTLPDGTTVETSVSTEKLPNGTVVTTTTTTFTTPDGTVVPSTTVSVSPAPPTELPFTVLYRPEGSLLSA [r9_1168_JUSTAS]	0.0778 ± 0.015 kcal/mol	-0.122 ± 0.16 kcal/mol	0.00633 ± 0.083 kcal/mol
SAGGSAGGSAGEKPVYYARVTEVKYNPENKELEIKLENGETITLSLEELKSLKPGDIIRISAGGSAGGSAGG [r11_124_TrROS_Hall]	1.88 ± 0.057 kcal/mol	2 ± 0.023 kcal/mol	1.97 ± 0.065 kcal/mol
SAGGMTFTITVTIPAKEKFYDPSKGIWRERELNRVITIPFSSSDIEKAKEEVRSKLPPDKYKITSVDSAGGS [r16_459_JUSTAS]	1.29 ± 0.04 kcal/mol	1.21 ± 0.17 kcal/mol	1.19 ± 0.12 kcal/mol
SAGGTIMIPFDTPEQAKDIREAAKDGEPIEIRPPDGKPIKFKIKDVEVDPNSGWLVIKIPNGRTIPISAGGS [r16_254_TrROS]	-0.179 ± 0.19 kcal/mol	0.151 ± 0.15 kcal/mol	0.0332 ± 0.097 kcal/mol
SAGGMTVPIFVPVDSPEQVEEILEELATPDVKEIVPATLPPLPPPGDKMVVPINITIFPGTGKAVIDASAGG [r13_174_TrMRF]	-1.08 ± 0.12 kcal/mol	0.991 ± 0.014 kcal/mol	0.492 ± 0.086 kcal/mol
SAGGTAEEIAETIAEKFSKKNNNPNVRITVEKEPDSLRIDITFPNNGHEIEIEFEDGGIRKIEWEPYSAGGS [r16_397_TrROS]	0.276 ± 0.27 kcal/mol	-0.251 ± 0.85 kcal/mol	-0.269 ± 0.94 kcal/mol
SAGGSGPDVPLEEIARRIAEELGVPILSVDFERDPEAPVVTIRVTFRSPAPGRLEERTVVLPRELLSAGGSA [r2_156_JUSTAS]	0.942 ± 0.035 kcal/mol	0.759 ± 0.083 kcal/mol	0.883 ± 0.068 kcal/mol
SAGGVITAVESTTTPLPNGTVLVTLTLKEGGETLQVTVTVSPDGVTVTTPSGKTSTIAPEELASLLPSAGGS [r16_593_JUSTAS]	1.31 ± 0.025 kcal/mol	1.39 ± 0.025 kcal/mol	1.34 ± 0.076 kcal/mol
SAKTIPINIWGPLGDMDRMAEEIARMIARKLGLPANLKKIKIKFTEIEPWPDPDGKPRWVRMSIEIKVKSAG [r14_736_TrROS]	3.55 ± 0.06 kcal/mol	3.61 ± 0.095 kcal/mol	3.45 ± 0.19 kcal/mol
SAGGSADLPPEVGSVTYSQNVPLDEIDEFIQEVIEKLGISPEEIKEIKVSRKTVPGSGVVSLTIVLSAGGSA [r15_934_JUSTAS]	1.46 ± 0.061 kcal/mol	1.18 ± 0.072 kcal/mol	1.34 ± 0.13 kcal/mol
SAGGKTIVVPEKDVEKLLKELEKLGFKVTKVERKDGYVTVTIEVEKDGKLEKIEIRIYRPEDLDKPPSAGGS [r8_307_TrROS_Hall]	1.1 ± 0.072 kcal/mol	2.28 ± 0.06 kcal/mol	2.01 ± 0.15 kcal/mol
SAGGSAGGSTIVIRLSKEELENMTAEELAEALAEEGAEVTVTVEYDEETDELVVTIEIHPEDLSAGGSAGGS [r12_716_TrROS_Hall]	2.12 ± 0.12 kcal/mol	2.01 ± 0.063 kcal/mol	2.11 ± 0.13 kcal/mol
SAGGSAGGSAGNKYLIKVKKKNGNKSEELEIEVEDNPEIAEKIAEELKKKGNIVSVEIKKASAGGSAGGSAG [r3_310_TrMRF]	0.761 ± 0.1 kcal/mol	0.403 ± 0.21 kcal/mol	0.66 ± 0.23 kcal/mol
SAGGSAGVKSSSPNGLTLEFPFESEEEVEEAVKEIKKAFPENYEVKIEIEKSEKILKVKIIVKKKDSAGGSA [r15_80_TrMRF]	1.08 ± 0.04 kcal/mol	2.14 ± 0.061 kcal/mol	1.9 ± 0.091 kcal/mol

Sequence	folding stability dG unfold [1]	folding stability dG unfold [2]	folding stability dG unfold [3]
SAGGSAGGSAAMLNRKPTVYPLPDDTVRLEETVPSPGTKIYKTIKLPPGGLIEEGDVSYPPSAGGSAGGSAG [r3_165_JUSTAS]	-1.08 ± 0.31 kcal/mol	-0.367 ± 0.23 kcal/mol	-0.521 ± 0.19 kcal/mol
SAGGSMVLVRVERTPDGTLRVTALFFFDGRLLRVERTFRLAPDGRIVDADVSVEELPVPPSEVPVLSAGGSA [r2_474_TrMRF]	3.39 ± 0.16 kcal/mol	4.45 ± 0.071 kcal/mol	4.11 ± 0.099 kcal/mol
SAGGNRIMFFFDTPEQAREIAKELAKNFPGYKLDVEVHTQEMKVKDPDNGEEQRYPMVMVEIEIKPPSAGGS [r16_828_TrROS]	1.6 ± 0.049 kcal/mol	1.44 ± 0.13 kcal/mol	1.52 ± 0.17 kcal/mol
SAGGMKITIKEDEETGEKVIEIEDEETGERVRVVFNPDGEEIEIEVPSPEVLEALKELGIEKVEVEEVSAGG [r13_511_TrROS_Hall]	0.732 ± 0.13 kcal/mol	1.07 ± 0.063 kcal/mol	0.976 ± 0.19 kcal/mol
SAGGSAGGKLVIGVFIPGLTPEQAEALVKLLEALGYPKENVTVVVFNVPALPPPGLEELLTKNGSAGGSAGG [r6_243_TrMRF]	1.77 ± 0.071 kcal/mol	2.75 ± 0.042 kcal/mol	2.45 ± 0.16 kcal/mol
SMKPYVYTHPEGITIPMFVLPDGTIKIEVTAFDPNNPVPLGKATATMDPATGTLNLTLPNGTSLSYTIPASA [r9_56_JUSTAS]	2.45 ± 0.065 kcal/mol	2.46 ± 0.1 kcal/mol	2.5 ± 0.16 kcal/mol
SMTKTIPVTIEVDPSLSEEEIEALVEKVKEEIKEKAEAEGGKVKVTVTIEPDPNKPVVHGTITITKPKKLSA [r9_1161_JUSTAS]	0.699 ± 0.049 kcal/mol	-0.499 ± 0.18 kcal/mol	0.165 ± 0.13 kcal/mol
SAGGKVKILKTEVFEEGDYLKIVDFVEVDSLEEIEELVKNGLENVEAEVRLLPDGRLLVVLVAEIPKESAGG [r13_506_TrMRF]	1.26 ± 0.031 kcal/mol	1.4 ± 0.026 kcal/mol	1.36 ± 0.04 kcal/mol
SAGMTVKTEVHTTTLPETGLVRTEETVTYPDGSVIRRTGDSNPETGEVTTTVTTPDGTLLATETTTITPSAG [r14_524_JUSTAS]	-0.585 ± 0.072 kcal/mol	0.426 ± 0.033 kcal/mol	0.184 ± 0.048 kcal/mol
SAGGSAGGSAGGITLEEILKLIKDQPPGETRMIRLPGNGYTIQIYYEDNQLEIDIEPVKDSAGGSAGGSAGG [r7_448_TrROS]	1.06 ± 0.029 kcal/mol	1.57 ± 0.032 kcal/mol	1.41 ± 0.078 kcal/mol
SAGGSAGGLEDVIRALGLELLEREKIGEKIRILARDPNADRLYEVTVTLEGPPEIEITPLPPGLSAGGSAGG [r6_195_JUSTAS]	2.79 ± 0.052 kcal/mol	3.225 ± 0.022 kcal/mol	3.04 ± 0.037 kcal/mol
SAGGGMVVYVTVPPDDPRVEELKERLAADPRVSDVTVEKVEEYPDTVRLRFTFPGDPAVVAAARALLSAGGS [r16_394_JUSTAS]	0.995 ± 0.059 kcal/mol	1.51 ± 0.096 kcal/mol	1.32 ± 0.053 kcal/mol
SAGGSKIEVKIEEENGTLTITVTVYDENGEQIAEITVTITLPAPKPPEKELVKAESPEEKEEALKQSAGGSA [r2_332_TrROS_Hall]	2.25 ± 0.12 kcal/mol	1.8 ± 0.12 kcal/mol	1.65 ± 0.35 kcal/mol
SAGGSAGGPEVYPVPGLTPEQFRELVERHGGRLRVVLPGGEEVELDFTRDSRPIPGKPAVVVFGSAGGSAGG [r6_303_TrMRF]	0.498 ± 0.019 kcal/mol	-0.544 ± 0.12 kcal/mol	0.12 ± 0.048 kcal/mol
SAGGMRIEVEIEEVRELPDGRLVFRVRARIELKVRVLERDENGRWRELPEEEVTVELEVEVEVFLPPSAGGS [r16_693_TrROS_Hall]	3.97 ± 0.19 kcal/mol	5.08 ± 0.21 kcal/mol	4.75 ± 0.3 kcal/mol
SAGGDVKEFDSPEDLNKALPALKNGKEVHIRVEMRMPQPDPDGEPRQYPMEFWYTIKLKNGELEIEPISAGG [r13_835_TrROS]	0.593 ± 0.071 kcal/mol	0.988 ± 0.091 kcal/mol	0.827 ± 0.07 kcal/mol
SAGGSFKIHWFDDPEAAEEAAKDMDPGKIIILPDPKNPKYYIVIVVKDKIFRYEIDNGNIKIEPIPSAGGSA [r2_280_TrROS]	1.86 ± 0.072 kcal/mol	2.3 ± 0.029 kcal/mol	2.11 ± 0.08 kcal/mol
SSSVTRTYTVTLPGSTVSIEITEKPNPEGSTTVTITVTTTKPGGGSTTTTVTKNITGLTLEDILKEAISSSA [r9_217_JUSTAS]	3.38 ± 0.092 kcal/mol	3.68 ± 0.05 kcal/mol	3.57 ± 0.057 kcal/mol
SAGGKPKVYEFEITIEFKTKTKKDKNGKTYKVKKIKIKIKVKVVVDEENKKIYIFDENGKLIAEFELSAGGS [r16_92_TrROS_Hall]	3 ± 0.22 kcal/mol	4.01 ± 0.13 kcal/mol	3.72 ± 0.26 kcal/mol
SAGGSAGGSAGSPLEEALAEARATGGPVTIRLPDGSEVVITVTEDEGELRVEVRSAAELGSAGGSAGGSAGG [r17_463_JUSTAS]	0.99 ± 0.027 kcal/mol	0.911 ± 0.042 kcal/mol	1 ± 0.099 kcal/mol
SAGGGPAPVVVTVEYDPETREQRVTARAGGGGVVFELSLPLGDKTVTVKVIPVGDKVLLEVEWEVKGSAGGS [r16_631_TrMRF]	2.95 ± 0.16 kcal/mol	3.06 ± 0.13 kcal/mol	2.91 ± 0.15 kcal/mol
